Test results reported in patent US20080255046A1 (7TM PHARMA A S, published 2008).
Where no end group is shown, it is not given here. [ ]: non-standard residue; d: D form. Met(O) = CS(=O)CC[C@H](N)C(=O)O

T1: rhesus monkey Y2 receptor (rhesus monkey, UniProt Q9GK74 1-381)
T1 sequence (looked up): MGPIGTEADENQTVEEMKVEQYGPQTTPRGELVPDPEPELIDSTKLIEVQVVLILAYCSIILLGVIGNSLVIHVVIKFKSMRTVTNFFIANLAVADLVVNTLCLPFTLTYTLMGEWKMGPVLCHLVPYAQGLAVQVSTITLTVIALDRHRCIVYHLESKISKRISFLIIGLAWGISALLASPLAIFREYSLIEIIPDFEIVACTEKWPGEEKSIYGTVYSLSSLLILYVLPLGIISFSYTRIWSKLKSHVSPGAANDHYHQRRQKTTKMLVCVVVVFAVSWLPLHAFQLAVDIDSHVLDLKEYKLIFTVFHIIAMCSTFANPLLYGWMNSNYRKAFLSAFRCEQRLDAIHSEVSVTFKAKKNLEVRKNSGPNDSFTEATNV

B1: NPY (Neuropeptide Y), human sequence (peptide)
peptide: not shown
modifications: C-terminally amidated
B2: PYY (Peptide YY), human sequence (peptide)
peptide: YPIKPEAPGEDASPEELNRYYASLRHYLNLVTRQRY
modifications: C-terminally amidated
notes: also called PYY1-36; human PYY
B3: [Lys4,Leu17,Met-sulfoxide30,Gln34]hPP (peptide)
peptide: APLKPVYPGDNATPEQLAQYAADLRRYIN[Met(O)]LTRQRY-NH2
modifications: N-terminus assumed
SMILES: CC[C@H](C)[C@H](NC(=O)[C@H](Cc1ccc(O)cc1)NC(=O)[C@H](CCCNC(=N)N)NC(=O)[C@H](CCCNC(=N)N)NC(=O)[C@H](CC(C)C)NC(=O)[C@H](CC(=O)O)NC(=O)[C@H](C)NC(=O)[C@H](C)NC(=O)[C@H](Cc1ccc(O)cc1)NC(=O)[C@H](CCC(N)=O)NC(=O)[C@H](C)NC(=O)[C@H](CC(C)C)NC(=O)[C@H](CCC(N)=O)NC(=O)[C@H](CCC(=O)O)NC(=O)[C@@H]1CCCN1C(=O)[C@@H](NC(=O)[C@H](C)NC(=O)[C@H](CC(N)=O)NC(=O)[C@H](CC(=O)O)NC(=O)CNC(=O)[C@@H]1CCCN1C(=O)[C@H](Cc1ccc(O)cc1)NC(=O)[C@@H](NC(=O)[C@@H]1CCCN1C(=O)[C@H](CCCCN)NC(=O)[C@H](CC(C)C)NC(=O)[C@@H]1CCCN1C(=O)[C@H](C)N)C(C)C)[C@@H](C)O)C(=O)N[C@@H](CC(N)=O)C(=O)N[C@@H](CCS(C)=O)C(=O)N[C@@H](CC(C)C)C(=O)N[C@H](C(=O)N[C@@H](CCCNC(=N)N)C(=O)N[C@@H](CCC(N)=O)C(=O)N[C@@H](CCCNC(=N)N)C(=O)N[C@@H](Cc1ccc(O)cc1)C(N)=O)[C@@H](C)O
notes: Human PP with Lys at 4, Leu at 17, oxidised Met at 30 and Gln at 34; also called [Lys4, Leu17, Met(O)30, Gln34]-PP; [Lys4,Leu17,oxidised Met30,Gln34]hPP
B4: [Lys4,Leu17,Ser30,Gln34]hPP (peptide)
peptide: APLKPVYPGDNATPEQLAQYAADLRRYINSLTRQRY-NH2
notes: also called [Lys4, Leu17, Ser30, Gln34]-PP; peptide (i)
B5: [Lys4,Leu17,Thr30,Gln34]hPP (peptide)
peptide: APLKPVYPGDNATPEQLAQYAADLRRYINTLTRQRY-NH2
notes: Human PP with Lys at 4, Leu at 17, Thr at 30 and Gln at 34; also called [Lys4, Leu17, Thr30, Gln34]-PP; peptide (ii)

Experiments:
[1] = molecular target: T1, rhesus monkey Y2 receptor; assay: cell-based or functional assay
[2] = molecular target: T1, rhesus monkey Y2 receptor; assay: competition binding with 125I-PYY on CHO cells stably expressing rhesus monkey Y2
Experimental: (§1) The stable transfected CHO cells are transferred to 48-well culture plates one day prior assay at a density of 2,500 cells per well aiming at 5-8% binding of the radioactive ligand. […] Binding assays are performed in 0.5 ml of a 50 mM Hepes buffer, pH 7.4, supplemented with 1 mM CaCl2, 5 mM MgCl2, and 0.1% (w/v) bovine serum albumin and 100 μg/ml bacitracin. Non-specific binding is determined as the binding in the presence of 1 μM of unlabeled human PYY. Cells are washed twice in 0.5 ml of ice-cold buffer and 0.5-1 ml of lysis buffer (8 M Urea, 2% NP40 in 3 M acetic acid) is added and the bound radioactivity is counted in a gamma counter. Determinations are made in triplicates. […] IC50 values were calculated using a standard pharmacological data handling software, Prism 3.0 (graphpad Sofware, San Diego, USA). Ki-values are calculated according the Cheng-Prusoff equation (Cheng Y, Prusoff W H., Biochem Pharmacol. 1973): Ki=[IC50/(1+[L]/Kd)], where Ki is the equilibrium inhibitory constant for the cold ligand, Kd is the equilibrium constant for the radiolabeled (hot) ligand and L is the concentration of the radiolabeled ligand used.

[3] = molecular target: rhesus monkey Y4 receptor (rhesus monkey); assay: cell-based or functional assay
[4] = molecular target: rhesus monkey Y1 receptor (rhesus monkey); assay: cell-based or functional assay
[5] = molecular target: T2, rhesus monkey Y4 receptor (rhesus monkey); assay: competition binding on CHO cells expressing rhesus monkey Y4 (125I-PP), compared with Y2
T2 construct: whole, on cells; also called rhY4
Experimental: as §1

[6] = molecular target: T3, rhesus monkey Y1 receptor (rhesus monkey); assay: competition binding on CHO cells expressing rhesus monkey Y1 (125I-PYY), compared with Y2
T3 construct: whole, on cells; also called rhY1
Experimental: as §1
Protocol as for the Y2 affinity assay, except that CHO cells stably expressing rhesus monkey Y1 are used and cells are transferred to culture plates at a density of 23,000 cells per well.

Row | Binder | IP3 EC50 values at Y2 [1] | Ki [2] | fold selectivity in the potency assay (Y2 against Y4) [3] | fold selectivity in the potency assay (Y2 against Y1) [4] | fold selectivity (affinity at Y2 against Y4) [5] | fold selectivity (affinity at Y2 against Y1) [6] | IP3 EC50 values at Y2 (nM) [1]
1 | B1 | 0.6 nM | 0.11 nM |  |  |  |  | 
2 | B2 | 0.18 nM | 0.09 nM |  |  |  |  | 
3 | B3 | 0.5 nM | 0.06 nM | ≥ 20 fold | ≥ 100 fold | ≥ 20 fold | ≥ 100 fold | 
4 | APLEPVYPGDNATPEQMAQYAADLRRYINMLTRPRY-NH2 [PP (Pancreatic Polypeptide), human sequence] |  |  |  |  |  |  | > 1000 nM
5 | B4 | 0.67 nM | 0.51 nM | ≥ 20 fold | ≥ 100 fold | ≥ 20 fold | ≥ 100 fold | 
6 | B5 | 0.71 nM | 0.47 nM | ≥ 20 fold | ≥ 100 fold | ≥ 20 fold | ≥ 100 fold | 
